Measured values: IntAct's records for PubMed 29892012

B1: E3 ubiquitin-protein ligase LNX (Homo sapiens), Q8TBB1 (parent)
chain: MNQPESANDPEPLCAVCGQAHSLEENHFYSYPEEVDDDLICHICLQALLDPLDTPCGHTYCTLCLTNFLVEKDFCPMDRKPLVLQHCKKSSILVNKLLNKLLVTCPFREHCTQVLQRCDLEHHFQTSCKGASHYGLTKDRKRRSQDGCPDGCASLTATAPSPEVSAAATISLMTDEPGLDNPAYVSSAEDGQPAISPVDSGRSNRTRARPFERSTIRSRSFKKINRALSVLRRTKSGSAVANHADQGRENSENTTAPEVFPRLYHLIPDGEITSIKINRVDPSESLSIRLVGGSETPLVHIIIQHIYRDGVIARDGRLLPGDIILKVNGMDISNVPHNYAVRLLRQPCQVLWLTVMREQKFRSRNNGQAPDAYRPRDDSFHVILNKSSPEEQLGIKLVRKVDEPGVFIFNVLDGGVAYRHGQLEENDRVLAINGHDLRYGSPESAAHLIQASERRVHLVVSRQVRQRSPDIFQEAGWNSNGSWSPGPGERSNTPKPLHPTITCHEKVVNIQKDPGESLGMTVAGGASHREWDLPIYVISVEPGGVISRDGRIKTGDILLNVDGVELTEVSRSEAVALLKRTSSSIVLKALEVKEYEPQEDCSSPAALDSNHNMAPPSDWSPSWVMWLELPRCLYNCKDIVLRRNTAGSLGFCIVGGYEEYNGNKPFFIKSIVEGTPAYNDGRIRCGDILLAVNGRSTSGMIHACLARLLKELKGRITLTIVSWPGTFL
partner: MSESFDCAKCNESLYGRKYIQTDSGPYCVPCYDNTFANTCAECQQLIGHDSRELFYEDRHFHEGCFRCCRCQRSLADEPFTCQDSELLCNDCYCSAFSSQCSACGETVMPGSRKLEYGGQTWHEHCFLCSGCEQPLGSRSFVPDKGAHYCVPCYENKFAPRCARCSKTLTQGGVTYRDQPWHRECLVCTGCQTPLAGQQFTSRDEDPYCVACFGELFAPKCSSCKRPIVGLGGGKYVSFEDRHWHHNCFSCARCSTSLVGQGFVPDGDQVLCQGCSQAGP
B2: E3 ubiquitin-protein ligase LNX (Homo sapiens), Q8TBB1 (parent)
chain: B1 chain
partner: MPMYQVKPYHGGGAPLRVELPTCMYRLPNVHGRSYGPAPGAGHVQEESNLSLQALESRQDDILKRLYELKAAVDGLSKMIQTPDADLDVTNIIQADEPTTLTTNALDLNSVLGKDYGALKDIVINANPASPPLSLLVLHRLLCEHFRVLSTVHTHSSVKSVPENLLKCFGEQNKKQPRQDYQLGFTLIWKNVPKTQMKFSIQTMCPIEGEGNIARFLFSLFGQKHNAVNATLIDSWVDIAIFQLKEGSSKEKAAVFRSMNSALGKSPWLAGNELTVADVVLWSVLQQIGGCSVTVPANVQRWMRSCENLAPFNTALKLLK
B3: Rho guanine nucleotide exchange factor 3 (Homo sapiens), Q9NR81 (parent)
chain: MVAKDYPFYLTVKRANCSLELPPASGPAKDAEEPSNKRVKPLSRVTSLANLIPPVKATPLKRFSQTLQRSISFRSESRPDILAPRPWSRNAAPSSTKRRDSKLWSETFDVCVNQMLTSKEIKRQEAIFELSQGEEDLIEDLKLAKKAYHDPMLKLSIMTEQELNQIFGTLDSLIPLHEELLSQLRDVRKPDGSTEHVGPILVGWLPCLSSYDSYCSNQVAAKALLDHKKQDHRVQDFLQRCLESPFSRKLDLWNFLDIPRSRLVKYPLLLREILRHTPNDNPDQQHLEEAINIIQGIVAEINTKTGESECRYYKERLLYLEEGQKDSLIDSSRVLCCHGELKNNRGVKLHVFLFQEVLVITRAVTHNEQLCYQLYRQPIPVKDLLLEDLQDGEVRLGGSLRGAFSNNERIKNFFRVSFKNGSQSQTHSLQANDTFNKQQWLNCIRQAKETVLCAAGQAGVLDSEGSFLNPTTGSRELQGETKLEQMDQSDSESDCSMDTSEVSLDCERMEQTDSSCGNSRHGESNV
B4: Histone-lysine N-methyltransferase SMYD1 (Homo sapiens), Q8NB12 (parent)
chain: MTIGRMENVEVFTAEGKGRGLKATKEFWAADIIFAERAYSAVVFDSLVNFVCHTCFKRQEKLHRCGQCKFAHYCDRTCQKDAWLNHKNECSAIKRYGKVPNENIRLAARIMWRVEREGTGLTEGCLVSVDDLQNHVEHFGEEEQKDLRVDVDTFLQYWPPQSQQFSMQYISHIFGVINCNGFTLSDQRGLQAVGVGIFPNLGLVNHDCWPNCTVIFNNGNHEAVKSMFHTQMRIELRALGKISEGEELTVSYIDFLNVSEERKRQLKKQYYFDCTCEHCQKKLKDDLFLGVKDNPKPSQEVVKEMIQFSKDTLEKIDKARSEGLYHEVVKLCRECLEKQEPVFADTNIYMLRMLSIVSEVLSYLQAFEEASFYARRMVDGYMKLYHPNNAQLGMAVMRAGLTNWHAGNIEVGHGMICKAYAILLVTHGPSHPITKDLEAMRVQTEMELRMFRQNEFMYYKMREAALNNQPMQVMAEPSNEPSPALFHKKQ
B5: E3 ubiquitin-protein ligase LNX (Homo sapiens), Q8TBB1 (parent)
chain: B1 chain
partner: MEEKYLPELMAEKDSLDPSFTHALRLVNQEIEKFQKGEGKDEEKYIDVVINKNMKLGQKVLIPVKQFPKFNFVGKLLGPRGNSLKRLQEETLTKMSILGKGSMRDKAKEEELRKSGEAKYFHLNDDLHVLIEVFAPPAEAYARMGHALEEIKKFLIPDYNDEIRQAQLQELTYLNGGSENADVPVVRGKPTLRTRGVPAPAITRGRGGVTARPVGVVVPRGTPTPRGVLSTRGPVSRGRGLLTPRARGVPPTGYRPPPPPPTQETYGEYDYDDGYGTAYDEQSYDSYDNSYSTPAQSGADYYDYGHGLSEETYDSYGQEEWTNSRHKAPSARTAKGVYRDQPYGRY
B6: Isoform 2 of Synaptoporin (Homo sapiens), Q8TBG9-2 (parent)
chain: MDPVSQLASAGTFRVLKEPLAFLRALELLFAIFAFATCGGYSGGLRLSVDCVNKTESNLSIDIAFAYPFRLHQVTFEVPTCEGKERQKLALIGDSSSSAEFFVTVAVFAFLYSLAATVVYIFFQNKYRENNRGPLIDFIVTVVFSFLWLVGSSAWAKGLSDVKVATDPKEVLLLMSACKQPSNKCMAIHSPVMSSLNTSVVFGFLNFILWAGNIWFVFKETGWHSSGQRYLSDPMEKHSSSYNQGGYNQDSYGSSSGYSQQASLGPTSDEFGQQPTGPTSFTNQI
partner: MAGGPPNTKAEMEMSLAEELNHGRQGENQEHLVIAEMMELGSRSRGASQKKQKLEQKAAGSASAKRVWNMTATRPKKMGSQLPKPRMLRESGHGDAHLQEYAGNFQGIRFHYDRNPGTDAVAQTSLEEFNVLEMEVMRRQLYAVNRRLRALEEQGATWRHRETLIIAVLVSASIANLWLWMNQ
B7: E3 ubiquitin-protein ligase LNX (Homo sapiens), Q8TBB1 (parent)
chain: B1 chain
partner: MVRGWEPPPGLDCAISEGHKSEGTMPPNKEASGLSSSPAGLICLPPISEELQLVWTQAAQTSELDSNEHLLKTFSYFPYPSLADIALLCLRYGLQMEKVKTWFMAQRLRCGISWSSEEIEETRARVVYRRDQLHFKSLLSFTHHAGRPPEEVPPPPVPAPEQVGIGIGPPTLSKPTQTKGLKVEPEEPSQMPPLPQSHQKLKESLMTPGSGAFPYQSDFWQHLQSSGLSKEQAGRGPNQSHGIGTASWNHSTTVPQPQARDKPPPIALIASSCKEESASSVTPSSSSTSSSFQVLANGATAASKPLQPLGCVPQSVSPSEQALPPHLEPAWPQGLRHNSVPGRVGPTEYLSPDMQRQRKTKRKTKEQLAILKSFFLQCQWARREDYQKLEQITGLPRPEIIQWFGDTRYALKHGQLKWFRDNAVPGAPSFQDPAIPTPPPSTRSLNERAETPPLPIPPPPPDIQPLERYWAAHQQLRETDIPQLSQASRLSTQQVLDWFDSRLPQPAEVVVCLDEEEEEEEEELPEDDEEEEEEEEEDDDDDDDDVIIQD
B8: Glucosamine-6-phosphate deaminase 2 (Homo sapiens), Q8TDQ7 (parent)
chain: MRLVILDNYDLASEWAAKYICNRIIQFKPGQDRYFTLGLPTGSTPLGCYKKLIEYHKNGHLSFKYVKTFNMDEYVGLPRNHPESYHSYMWNNFFKHIDIDPNNAHILDGNAADLQAECDAFENKIKEAGGIDLFVGGIGPDGHIAFNEPGSSLVSRTRLKTLAMDTILANAKYFDGDLSKVPTMALTVGVGTVMDAREVMILITGAHKAFALYKAIEEGVNHMWTVSAFQQHPRTIFVCDEDATLELRVKTVKYFKGLMHVHNKLVDPLFSMKDGN
partner: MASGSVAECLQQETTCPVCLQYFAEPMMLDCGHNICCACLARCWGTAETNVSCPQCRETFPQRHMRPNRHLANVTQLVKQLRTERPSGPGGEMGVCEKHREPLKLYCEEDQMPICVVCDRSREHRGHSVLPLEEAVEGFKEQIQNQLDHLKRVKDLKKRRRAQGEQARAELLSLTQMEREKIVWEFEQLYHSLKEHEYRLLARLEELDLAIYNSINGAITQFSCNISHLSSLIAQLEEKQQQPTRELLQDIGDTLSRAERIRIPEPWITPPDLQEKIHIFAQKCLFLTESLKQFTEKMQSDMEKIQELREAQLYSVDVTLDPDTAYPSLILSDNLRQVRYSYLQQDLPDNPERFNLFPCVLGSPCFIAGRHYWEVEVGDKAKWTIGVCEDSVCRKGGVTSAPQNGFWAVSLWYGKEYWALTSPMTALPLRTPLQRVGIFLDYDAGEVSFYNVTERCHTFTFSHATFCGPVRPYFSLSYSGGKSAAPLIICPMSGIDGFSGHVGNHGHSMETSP

Variants of: B1
Details: with fhl3_human FHL3, Q13643

effect of a mutation on the interaction | Variant
disrupting interaction strength | E295K

Variants of: B2
Details: with aimp2_human AIMP2, Q13155

effect of a mutation on the interaction | Variant
disrupting interaction strength | E295K

Variants of: B3
Details: with tri23_human TRIM23, P36406
Chain of tri23_human TRIM23, P36406 (P36406 whole entry): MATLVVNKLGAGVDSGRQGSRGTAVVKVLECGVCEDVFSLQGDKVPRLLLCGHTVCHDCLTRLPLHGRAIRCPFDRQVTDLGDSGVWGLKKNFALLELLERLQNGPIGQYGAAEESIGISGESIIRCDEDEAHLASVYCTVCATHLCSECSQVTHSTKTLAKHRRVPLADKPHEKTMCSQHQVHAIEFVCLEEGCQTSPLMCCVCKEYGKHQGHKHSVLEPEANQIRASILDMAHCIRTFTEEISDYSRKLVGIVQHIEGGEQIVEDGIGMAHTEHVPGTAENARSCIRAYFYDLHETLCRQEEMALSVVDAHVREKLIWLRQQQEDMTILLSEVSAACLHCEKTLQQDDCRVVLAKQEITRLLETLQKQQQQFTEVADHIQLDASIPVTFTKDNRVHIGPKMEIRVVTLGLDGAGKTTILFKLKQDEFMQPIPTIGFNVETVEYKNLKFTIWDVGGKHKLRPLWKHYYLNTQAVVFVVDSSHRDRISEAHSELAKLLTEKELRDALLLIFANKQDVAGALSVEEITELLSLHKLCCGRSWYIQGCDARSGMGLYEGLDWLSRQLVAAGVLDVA

effect of a mutation on the interaction | Variant
with no effect | P34S

Variants of: B4
Details: with bhe40_human BHLHE40, O14503
Chain of bhe40_human BHLHE40, O14503 (O14503 whole entry): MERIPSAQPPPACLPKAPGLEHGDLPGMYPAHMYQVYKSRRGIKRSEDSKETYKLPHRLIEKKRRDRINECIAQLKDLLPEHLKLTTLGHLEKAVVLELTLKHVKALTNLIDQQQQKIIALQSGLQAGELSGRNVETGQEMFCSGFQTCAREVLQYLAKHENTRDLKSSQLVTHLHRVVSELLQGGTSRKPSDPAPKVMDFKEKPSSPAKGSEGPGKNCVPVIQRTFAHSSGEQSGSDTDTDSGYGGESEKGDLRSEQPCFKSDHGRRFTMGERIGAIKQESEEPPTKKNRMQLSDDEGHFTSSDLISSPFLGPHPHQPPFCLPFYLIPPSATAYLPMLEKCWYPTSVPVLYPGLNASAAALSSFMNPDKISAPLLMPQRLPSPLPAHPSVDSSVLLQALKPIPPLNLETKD

effect of a mutation on the interaction | Variant
with no effect | Q443R

Variants of: B5
Details: with khdr3_human KHDRBS3, O75525

effect of a mutation on the interaction | Variant
disrupting interaction strength | E295K

Variants of: B6
Details: with fate1_human FATE1, Q969F0

effect of a mutation on the interaction | Variant
with no effect | A115P

Variants of: B7
Details: with homez_human HOMEZ

effect of a mutation on the interaction | Variant
disrupting interaction strength | E295K

Variants of: B8
Details: with tri27_human TRIM27, P14373

effect of a mutation on the interaction | Variant
with no effect | I216V
